Assay [1] addresses synthetic HPV16 virus-like particles (L1 and L2) purified from CV-1 cells infected with pLC201VV (human papillomavirus type 16) (UniProt P03101). The assay can be described thus: ELISA, denatured particles coated in carbonate buffer pH 9.6.
The target is the same in assay [2]. Kind of assay: ELISA, native VLPs coated in PBS pH 7.5.

UniProt P03101, sequence (P03101 whole entry, chain 1 of 2): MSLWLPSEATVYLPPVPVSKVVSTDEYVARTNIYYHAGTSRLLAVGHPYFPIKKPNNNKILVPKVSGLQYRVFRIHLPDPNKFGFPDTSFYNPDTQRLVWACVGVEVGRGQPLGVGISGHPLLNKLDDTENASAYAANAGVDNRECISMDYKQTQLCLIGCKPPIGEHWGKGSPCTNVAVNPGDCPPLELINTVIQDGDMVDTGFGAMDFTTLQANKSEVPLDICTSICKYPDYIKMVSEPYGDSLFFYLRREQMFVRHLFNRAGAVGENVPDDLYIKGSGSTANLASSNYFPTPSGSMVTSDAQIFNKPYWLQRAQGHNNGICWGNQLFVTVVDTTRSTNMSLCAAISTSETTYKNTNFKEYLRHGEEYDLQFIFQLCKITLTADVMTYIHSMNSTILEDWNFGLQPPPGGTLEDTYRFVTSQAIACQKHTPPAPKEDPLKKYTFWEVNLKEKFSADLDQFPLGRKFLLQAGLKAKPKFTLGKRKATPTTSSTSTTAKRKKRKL
UniProt P03101, sequence (P03107 whole entry, chain 2 of 2, further chain): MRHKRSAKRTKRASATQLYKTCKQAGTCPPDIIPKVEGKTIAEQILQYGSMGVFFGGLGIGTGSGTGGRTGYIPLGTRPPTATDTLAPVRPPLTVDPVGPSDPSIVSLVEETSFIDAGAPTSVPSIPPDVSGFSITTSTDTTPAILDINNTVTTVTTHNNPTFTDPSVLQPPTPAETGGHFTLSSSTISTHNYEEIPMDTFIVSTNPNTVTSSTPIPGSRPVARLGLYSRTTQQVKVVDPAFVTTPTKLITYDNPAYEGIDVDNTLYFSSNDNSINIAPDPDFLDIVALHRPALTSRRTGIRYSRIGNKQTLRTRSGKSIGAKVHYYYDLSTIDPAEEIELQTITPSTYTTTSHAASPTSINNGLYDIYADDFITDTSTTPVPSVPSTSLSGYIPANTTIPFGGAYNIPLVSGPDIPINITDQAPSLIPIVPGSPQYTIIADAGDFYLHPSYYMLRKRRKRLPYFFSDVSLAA

In the case of “anti-HPV16 L1 monoclonal antibody Camvir 1”, the OD was determined as 0.107 OD in assay [1] and 0.064 OD in assay [2].

The values above are taken from patent US20040214331A1.
